Test results taken from the nanobody polyreactivity screen of Harvey et al. (2022).

Test: yeast display, Sf9 membrane polyspecificity reagent, FACS + sequencing; frameworks hold sequencing errors
Outline: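 Sorting gates, low and high (top ~1%), were placed on anti-HA fluorescence to track expression and on streptavidin fluorescence to track reagent binding. A clone's polyreactivity label is taken from the gate it came out of. The reagent was 10% biotinylated, detergent-solubilized Sf9 membrane, applied for 1 hour at 4 °C to galactose-induced yeast display cells.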

Q: Which “polyreactivity (PSR sort gate)” value does the source give for “QVQLVESGGGLVKAGGSLRLSCAATGFTLSWYDMGWYRPAPGKERELVATISRGGITYYADSVKGRFTISRDNAKNTVYLQMNSLKPEDTAVYYCAADYRYGWYRYDYWGQGTQVTVSS” here?
A: high polyreactivity

Q: With “QVQLVESGGGLVKAGGSLRLSCAATGRIFTYMGWYRQARGKERELVAGISWRGTSTYYADSVKGRFTISRDNAKNSVYLQMNSLKPEDTAVYYCAARWAYHVRGDYWGQGTQVTVSS” as the sequence, how does the “polyreactivity (PSR sort gate)” value read?
A: low polyreactivity

Q: Which “polyreactivity (PSR sort gate)” value does the source give for “QVQLVESGGGLVKAGGSLRLSCAAYGIIYYPYAMGRYRHAPGKEWELVAAIDRSGSSTYYADSVKGRFTISRDNAKNTVYVQMNSLKPEDTAVYYCAAAHTYFTAYGDYWGQGTQVTVSS” here?
A: low polyreactivity

Q: Which “polyreactivity (PSR sort gate)” value does the source give for “QVQLVESGGGLVKAGGSLRLSCAAYGITFIRYAMGWYRQAPGKERELVAVMTRSGGRTYYADSVKGRFTISRDNAKNTVYLQMNSLKPEDTAVYYCAARAYGYDEYEYWGQGTQVTVSS” here?
A: high polyreactivity

Q: Which “polyreactivity (PSR sort gate)” value does the source give for “QVQLVESGGGLVKAGGSLRLSRAASGSIFPRYAMGWNRQAPGKERELVAAITSSAASTYYADSVKGRFTISRDNAKNTVYLQMNSLKPEDSAVYYCAASGPWSYWYYYWGQGTQVTVSS” here?
A: low polyreactivity

Q: For “QVQLVESGGGLVKAGGSLRLSSAATGFIFAYYDMGWYRQAPGKERELVAAISSRGGTYYADSVKGRFTISRDNATITVYLKMNCLKPEDTAVYDCAAASYTWVSRGYEYWGQGTQVTVSS”, which “polyreactivity (PSR sort gate)” value is on record?
A: high polyreactivity

Q: Which “polyreactivity (PSR sort gate)” value does the source give for “QVQLVESGGGLVKEGGSLRLRCAASGRTFYVNAMGWSRQAPGKERELFASISSSGGSTYYADSVKGRFTSSRDNAKNTVYLQMNRLKPEDTEVYYCAKGYWPFWRGDRFYWGQGTQVTVSS” here?
A: high polyreactivity

Q: For “QVQLVESGGGLVKEGGSLRLSCAASGITFSWNAMGWYRQAPGKERELVAAISSSGGSTYYADSVKGRFTISRDYAKNTVYLLMNSLKPEDTAVYFCNADRFWFHWVYSRYHYDYWGQGTQVTVSS”, which “polyreactivity (PSR sort gate)” value is on record?
A: high polyreactivity

Q: With “QVQLVESGGGLVKEGGSLRLSCAASGSIFDWYVMGWYRQAPRKERELVATITRDGSTNYADSVKGRFTISRDNAKNTVYLQMNSLKPEDTAVYYCAAVIRSNRLYDGGYWGQGTQVTVSS” as the sequence, how does the “polyreactivity (PSR sort gate)” value read?
A: low polyreactivity

Q: With “QVQLVESGGGLVLAGGILRLSCAASGSTFKRYAMGWYRQAPGKVRELVAAITWRGGSTYYADSVKGRFTISRDNAKNTVYLQMNSLKPEDTAVYYCAARANYFGWPKSYYYWGQGTQVTVSS” as the sequence, how does the “polyreactivity (PSR sort gate)” value read?
A: high polyreactivity

Q: Which “polyreactivity (PSR sort gate)” value does the source give for “QVQLVESGGGLVLAGGSLRLRCAASGRIFGQYTMGWYRQAPGKERELVAAISRSSSSKYADSVKRRFTISRDNAKNTGYLQMNSLKPEDTAVYYCAAYVYYYGGRTYDYWGQGTQLTVSS” here?
A: high polyreactivity

Q: For “QVQLVESGGGLVLAGGSLRLSCAASGLILPYYTMGWYREAPGKERELVAAIRRTTGSTFYADSVKGRFTISRDNAKNTVYLQMNSLKPEDTAVYYCNVRRTPYRHWTGGGMDYWGQGTQVTVSS”, which “polyreactivity (PSR sort gate)” value is on record?
A: high polyreactivity

Q: For “QVQLVESGGGLVLAGGSLRLSCAASGRTFRYYTMGWFRPAPGKEREFVAAISSTGGTYYADSVKGRFTISRDNAKNTVYLQMNSLNPEDTAVYYCAATFIQVVVNVQLYDYDYWGQGTQVTVSS”, which “polyreactivity (PSR sort gate)” value is on record?
A: low polyreactivity

Q: Which “polyreactivity (PSR sort gate)” value does the source give for “QVQLVESGGGLVLAGGSLRLSCAASGRTFVPYAMGWYRQAPGKERELVAAMSQSGGRTYYTDSVKGRFTISGETAKNTVYLQMNSLNPEDTAVYYCAADVRSSIGHFTLYDYWGQGTQVTVSS” here?
A: high polyreactivity

Q: With “QVQLVESGGGLVLAGGSLRLSCAASGRTFVQYAMGWYRQAPGTERELVAAISDRGGNTYYADSVKGRFTISRDNAKNTVYLQMNSLKPDDTAVYYCAAKIALDNDYWGQGTQVTVSS” as the sequence, how does the “polyreactivity (PSR sort gate)” value read?
A: high polyreactivity

Q: For “QVQLVESGGGLVLAGGSLRLSCAASGSIFYVYAMGWYRQAPGKERELVASITWSGGRTYYADSVKGRFTISRDNAKNTVYLQMNSLKPEDTAVYYCNAVSFGARTTSYRYGSCGQGTQVTVSS”, which “polyreactivity (PSR sort gate)” value is on record?
A: high polyreactivity

Q: Which “polyreactivity (PSR sort gate)” value does the source give for “QVQLVESGGGLVLAGGSLRLSCAASGSTFTRNAMGWYRQAPGKERELVATISSGGSTNYADSVKGRFTISRDNAKNTVYLQMNSLKPEDTAVYYCAKRSLYRYYYWGQGPQVTVSS” here?
A: high polyreactivity

Q: Which “polyreactivity (PSR sort gate)” value does the source give for “QVQLVESGGGLVLAGGSLSLSCAASGSTFIWNAMGWYRQAPGKERELVAAIRRGSSTNYADSVKGRFTISRDNAKNTVYLQMNSLKPEDTAVYYCAKKQVTTDVSSETFVLEMDYWGQGTQVTVSS” here?
A: low polyreactivity

Q: With “QVQLVESGGGLVPAGGSLRFSCAASGMTFFVNDRGSYRQAPGKERELLAVISFTGDSTFYADSVKGRFTISRDKAQNTVSLQMHSLKPEETAVYYSAADFRRGFSKYSYYLYFDFDYWGQGTQVTVSS” as the sequence, how does the “polyreactivity (PSR sort gate)” value read?
A: low polyreactivity

Q: Which “polyreactivity (PSR sort gate)” value does the source give for “QVQLVESGGGLVPAGGSLRLSCAASGFIILYYAMGWYRHEPGKERELVAAITTRGGRTYYADSVKGRFTISRDNAKNTVYLQMYSLKPEDTALYYCAADHLYWGLEDESWGQGTQVTVSS” here?
A: low polyreactivity

Q: For “QVQLVESGGGLVPAGGSLRLSCAASGIIFGTYAMGWYRQEPGKERELVAAIRRTGTGTYYADSVKGRFTISRDNAKNTVYLQMNSLKPEDTAVYYCNVVRSYAYDYWGQGTQVTVSS”, which “polyreactivity (PSR sort gate)” value is on record?
A: high polyreactivity

Q: Which “polyreactivity (PSR sort gate)” value does the source give for “QVQLVESGGGLVPAGGSLRLSCAASGRTFYYYAMGWYRQAPGKERELVAAIRRSGSSTYYADSVKGRFTISRDNAKNTVYLQMNSLKPEDTAVYYCAARPRRPRSNYWGQGTQVSVSS” here?
A: high polyreactivity

Q: Which “polyreactivity (PSR sort gate)” value does the source give for “QVQLVESGGGLVPAGGSLRLSCAASGSIFGKNAMGSYRQAPGNERELVAAITRRGGSTYYADSVKGRFTISRDNAKNTVYLQMNSLKAEDTAVYYCAAVSHYPAGYDYWGQGTQVTVSS” here?
A: high polyreactivity

Q: For “QVQLVESGGGLVPARGSLRLSCAASGNIFFVYDMGWYRQAPGKERELVAAISWSGGSTYADSVKGRFTISRDNGKNNVYLQMNSLKPEDTGVYYCAADVAYVEYDYWGQGSQVTVSS”, which “polyreactivity (PSR sort gate)” value is on record?
A: low polyreactivity

Q: With “QVQLVESGGGLVQAAGSLRLSCAASGLIFQNYPMGWYRQAPGKERELVARISRRGGSTYYADSVKGRFTISRDNAKNPVYLQMISLKQEDTAVYYCAAGWTRWTSKRFEYWGQGTQVTVSS” as the sequence, how does the “polyreactivity (PSR sort gate)” value read?
A: high polyreactivity

Q: With “QVQLVESGGGLVQAAGSLRLSCAASGRTFKVYAMGWYRQAPGKERELVAAITWRGGRTYYADSVKGRFTISSDNAKNTVYLQMNSLKPEDTAVYDCAADLYYLTHDYWGQGTQVTVSS” as the sequence, how does the “polyreactivity (PSR sort gate)” value read?
A: high polyreactivity

Q: For “QVQLVESGGGLVQAAGSLRLSCAASGSIFETYAMGWYRHAPGKERELVAAITQSGGSTYYADSVKGRFTISRDNAKNTVYLQMNSLKPEDTEVYYCAADLFVWWNWGYEYWGQGTQVTVSS”, which “polyreactivity (PSR sort gate)” value is on record?
A: low polyreactivity

Q: For “QVQLVESGGGLVQAAGSLRLSCAASGSIFFYNAMGWYRQAPGIERELVAAITGGGGRTYYADSVKGRFTISRDNAKNTVYLQMNSLKPEDTAVYYCNKDWAQPYDYWGQGTQVTVSS”, which “polyreactivity (PSR sort gate)” value is on record?
A: high polyreactivity

Q: Which “polyreactivity (PSR sort gate)” value does the source give for “QVQLVESGGGLVQAAGSLRLSCAASGSIFTYYAKGCYRQATRKERELVATINRIGGNTYDADSVKGRFTLSSDNAKNTVYLQMNRLKPEDNAVYYCAAKPTYRGYGYGSWGQGTQVTVSS” here?
A: low polyreactivity

Q: Which “polyreactivity (PSR sort gate)” value does the source give for “QVQLVESGGGLVQAAGSLRLSCAASGSTFGYNTMGWYRQAPGKERELVAGITYSGGRTYYADSVKGRFTISRDNAKNTVYLQMNSLKPADTAVYYCAALYGRGGYRNQPKSTTGMDYWGQGTQVTVSS” here?
A: high polyreactivity

Q: With “QVQLVESGGGLVQAAGSLRLSCAASGSTFQYYAMGWYRQAPGKERELVAAISASVDTTFYADSVKGRFTISRDNAKNTVYLQMNSLKPEDTAVYYCAKRYVDPLGSGTHGSWGQGTQVTVSS” as the sequence, how does the “polyreactivity (PSR sort gate)” value read?
A: low polyreactivity

Q: With “QVQLVESGGGLVQAAGSLRLSCAASGYTSSVYAMGWYIQAHGKERELVAAISADGGSTYYADSVKGRFTISRDNAKNTVYLQMNSLKPEDTAVYYCAKYTYPYTPYSWWYDYWGQGTQVTVSS” as the sequence, how does the “polyreactivity (PSR sort gate)” value read?
A: low polyreactivity

Q: With “QVQLVESGGGLVQAAGSVRLSCAASGITFTQYAMGRYRHAPGKESECVAGITFSGSSTYYADSVKGRFTISRDNSKNTVYLQMNSLKPEDTAVYYCAAESWYKYIYGYPRLFDYWGQATQVTVSS” as the sequence, how does the “polyreactivity (PSR sort gate)” value read?
A: low polyreactivity

Q: With “QVQLVESGGGLVQAARTLRISCAASGYIFQYNSMRWYRPAPGKERELVAPSRYRGTSTYYADSVKGRFTISRDNAKNTDYSQMNRLKPEDTAVYYCAADSVQGRGFFGYGYWGQGTHVTVSS” as the sequence, how does the “polyreactivity (PSR sort gate)” value read?
A: high polyreactivity

Q: For “QVQLVESGGGLVQAEGSLRLSCAASGIIFFHNAMGWYRQAPGKERELVATISRSGGSTYYADSVKGRFTISRDNAKNTVYLQMNSLKPEDTAVYYCAARQSIFYSWTGVEYYYWGQGTQVTVSS”, which “polyreactivity (PSR sort gate)” value is on record?
A: low polyreactivity

Q: For “QVQLVESGGGLVQAEGSLRLSCAASGSTLLYAMGWYRQAPGKERELVAAISIGDSTNYADSVKGRFTISRDNAKNTVYLQMNSLKPEDTAVYYCNADQGSNYYWGQGTQVTVSS”, which “polyreactivity (PSR sort gate)” value is on record?
A: low polyreactivity

Q: With “QVQLVESGGGLVQAGASHRLSCAASGRIFGGYAMGSDRQAPGKERELVAAISSRGGSTYYADSVKGRFTISRDNAKNTVYLLMNSLKPEETAVYYCAADGRVKGWGQGTQVTVSS” as the sequence, how does the “polyreactivity (PSR sort gate)” value read?
A: high polyreactivity

Q: With “QVQLVESGGGLVQAGASLRLICDASGSIFPYNAMGWYRQAPGKERELVAVITSSGGSTYYADSVKGRFTISRDNAKNTVYLQLNSLKPEDTAVYYCAVLNHRVDSVLTRYYYWGQGTQVTVSS” as the sequence, how does the “polyreactivity (PSR sort gate)” value read?
A: low polyreactivity

Q: For “QVQLVESGGGLVQAGASLRLSCAASASTFKGNAMGWYRQAPGKERELVAAINRSGTSTYYADSVKGRFTISRDNAKNSVYLQMNSLKPEDTAVYYCAKNYFGHRFDYWGQGTQVTVSS”, which “polyreactivity (PSR sort gate)” value is on record?
A: high polyreactivity

Q: For “QVQLVESGGGLVQAGASLRLSCAASGFILYRYAMGWYRQAPGKERELVAAISRRGGSTYYADSVKGRFTISRDNAKNTVYLQMNSLKPEDTAVYYCAADARYTRYDYWGQGTQVTVSS”, which “polyreactivity (PSR sort gate)” value is on record?
A: high polyreactivity

Q: For “QVQLVESGGGLVQAGASLRLSCAASGFTFTPYAMGWYRQAPGKEREMVAAISWGDGSTYYADSVKGRFTISRDNAKNTVYLQMNSLKPEDTAVYYCAADFDFYYDWIYYYWGQGTQVTVSS”, which “polyreactivity (PSR sort gate)” value is on record?
A: high polyreactivity
